Data taken from IntAct's records for PubMed 21905166.

B1: Rab proteins geranylgeranyltransferase component A 1 (Homo sapiens), P24386 (parent)
chain: MADTLPSEFDVIVIGTGLPESIIAAACSRSGRRVLHVDSRSYYGGNWASFSFSGLLSWLKEYQENSDIVSDSPVWQDQILENEEAIALSRKDKTIQHVEVFCYASQDLHEDVEEAGALQKNHALVTSANSTEAADSAFLPTEDESLSTMSCEMLTEQTPSSDPENALEVNGAEVTGEKENHCDDKTCVPSTSAEDMSENVPIAEDTTEQPKKNRITYSQIIKEGRRFNIDLVSKLLYSRGLLIDLLIKSNVSRYAEFKNITRILAFREGRVEQVPCSRADVFNSKQLTMVEKRMLMKFLTFCMEYEKYPDEYKGYEEITFYEYLKTQKLTPNLQYIVMHSIAMTSETASSTIDGLKATKNFLHCLGRYGNTPFLFPLYGQGELPQCFCRMCAVFGGIYCLRHSVQCLVVDKESRKCKAIIDQFGQRIISEHFLVEDSYFPENMCSRVQYRQISRAVLITDRSVLKTDSDQQISILTVPAEEPGTFAVRVIELCSSTMTCMKGTYLVHLTCTSSKTAREDLESVVQKLFVPYTEMEIENEQVEKPRILWALYFNMRDSSDISRSCYNDLPSNVYVCSGPDCGLGNDNAVKQAETLFQEICPNEDFCPPPPNPEDIILDGDSLQPEASESSAIPEANSETFKESTNLGNLEESSE
partner: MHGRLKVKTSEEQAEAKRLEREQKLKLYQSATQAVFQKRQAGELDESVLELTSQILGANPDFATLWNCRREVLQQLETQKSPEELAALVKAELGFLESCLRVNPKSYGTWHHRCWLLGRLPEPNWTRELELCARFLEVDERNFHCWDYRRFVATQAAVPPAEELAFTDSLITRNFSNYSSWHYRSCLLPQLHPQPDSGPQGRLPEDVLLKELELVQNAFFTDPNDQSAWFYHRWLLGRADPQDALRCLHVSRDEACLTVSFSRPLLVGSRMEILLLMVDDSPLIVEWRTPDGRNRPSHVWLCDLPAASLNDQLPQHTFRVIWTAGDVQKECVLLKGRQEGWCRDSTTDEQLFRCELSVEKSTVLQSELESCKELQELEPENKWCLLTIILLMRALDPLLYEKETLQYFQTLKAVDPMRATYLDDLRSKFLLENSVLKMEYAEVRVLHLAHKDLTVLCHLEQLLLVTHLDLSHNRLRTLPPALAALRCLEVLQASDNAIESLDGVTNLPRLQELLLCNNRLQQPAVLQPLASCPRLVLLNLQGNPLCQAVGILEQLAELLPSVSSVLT

Variants of: B1
Details: with pgta_human RABGGTA

effect of a mutation on the interaction	Variant
disrupting interaction	H507R
